Where two headings read alike, the source gives them in different places.
T1: MERS-CoV [change] (MERS-CoV, UniProt K9N5Q8 18-725)
T1 sequence: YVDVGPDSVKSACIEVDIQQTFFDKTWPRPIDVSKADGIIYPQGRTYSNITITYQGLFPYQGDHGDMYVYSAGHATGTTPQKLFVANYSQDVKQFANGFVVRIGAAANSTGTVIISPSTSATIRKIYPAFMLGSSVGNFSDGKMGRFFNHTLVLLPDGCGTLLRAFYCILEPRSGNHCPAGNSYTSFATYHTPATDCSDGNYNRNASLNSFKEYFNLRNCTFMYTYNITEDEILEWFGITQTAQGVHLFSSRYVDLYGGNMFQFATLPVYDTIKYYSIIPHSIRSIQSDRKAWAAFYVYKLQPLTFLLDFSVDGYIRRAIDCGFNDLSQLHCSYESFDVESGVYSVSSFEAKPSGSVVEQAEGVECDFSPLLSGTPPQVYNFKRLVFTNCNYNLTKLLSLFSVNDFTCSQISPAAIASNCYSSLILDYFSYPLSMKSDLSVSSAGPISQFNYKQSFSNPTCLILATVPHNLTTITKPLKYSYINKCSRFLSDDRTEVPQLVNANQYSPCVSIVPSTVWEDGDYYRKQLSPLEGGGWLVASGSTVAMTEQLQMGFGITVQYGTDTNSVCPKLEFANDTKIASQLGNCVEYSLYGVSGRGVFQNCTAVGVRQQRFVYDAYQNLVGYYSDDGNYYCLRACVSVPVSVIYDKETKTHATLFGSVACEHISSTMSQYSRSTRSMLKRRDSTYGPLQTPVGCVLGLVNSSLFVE

B1: A-6 (antibody, V domains shown)
VH: QVQLVQSGGGVVQPGRSLRLSCAASGFTFSNFAMHWVRQAPGKGLEWVAVILYDGINKYYADSVKGRFTISRGNSKNTLSLQMNSLRAEDTAVYYCARAQNYYDRSGTLQLDAFDIWGQGTMVTVSS
VL: DIVMTQSPSSLSASVGDRVTITCRASQGIRNDLGWYQQKPGKAPKLLIYAASSLQSGVPSRFSGSGSGTDFTLTISSLQPEDFATYYCLQDYNYPLTFGGGTKVEIK
B2: A-18 (antibody, V domains shown)
VH: EVQLLESGGGLVQPGGSLRLSCAASGFTFSRYWMHWVRQAPGKGLVWVSRINSDGSSTTYADSVKGRFTISRDNAKNTLYLQMNSLRAEDTAVYYCARELYYYDSRGAEEGEGWFDPWGQGTLVTVSS
VL: QSVLTQPPSVSGAPGQRVTISCTGISSNIGAGYDVHWYQQLPGTAPKLLIYGNSNRPSGVPDRFSASKSGTSAPLAITGLQAEDEADYYCQSSDRSLSGSVFGTGTKLTVL
B3: A-16 (antibody, V domains shown)
VH: QVQLVESGGGLVQPGRSLRLSCAASGFTFDDYAMHWVRQAPGKGLEWVSGISWNSGTIGYADSVKGRFIISRDNAKNSLYLQMNSLRGEDMALYYCGKDRKREDPSLGGMDVWGQGTTVTVSS
VL: SYELTQPPSVSVAPGQTARITCGGNNIGSKSVHWYQQKPGQAPVLVVYDDTDRPSGIPERFSGSNSGNTATLTISRVEAGDEADYYCQVWDSSSDHYVFGTGTKLTVL
B4: A-9 (antibody, V domains shown)
VH: EVQLVESGGGLVKPGRSLRLSCAASGFTFADYAMSWFRQAPGKGLEWVGFIRSKPYGGTTEYAASVKGRFTISRDDSKSIAYLQMNSLKTEDTAVYYCSRDPWYCSGGDCYAVTGSWFDPWGQGTLVTVSS
VL: DIVLTQSPSSLSASVGDRVTITCQASQDIKKYLNWYQQKPGKAPKLLIYDVSNLETGVPSRFSGSGSGTDFTFTISSLQPEDVAIYYCQQYDNLPQTFGQGTKVDIK
B5: A-24 Fab (Fab, V domains shown)
VH: EVQLVESGGGLVKPGRSLRLSCAASGFTFADYAMSWFRQAPGKGLEWVGFIRSKPYGGTTEYAASVKGRFTISRDDSKSIAYLQMNSLKTEDTAVYYCSRDPWYCSGGDCYAVTGSWFDPWGQGTLVTVSS
VL: DIQMTQSPSSLSASVGDRVTITCQASQDIKKYLNWYQQKPGKAPKLLIYDVSNLETGVPSRFSGSGSGTDFTFTISSLQPEDVAIYYCQQYDNLPQTFGQGTKVEIK
B6: A-24.3 Fab (Fab, V domains shown)
VH: EVQLVESGGGLVKPGRSLRLSCAASGFTFADYTMSWFRQAPGKGLEWVGFIRSEPYGGTTEYAASVKGRFTISRDDSKSIAYLQMNSLKTEDTAVYYCSRDPWYCSGGDCYAVTGSWFDPWGQGTLVTVSS
VL: DIQMTQSPSSLSASVGDRVTITCQASRDIKKYLNWYQQKPGKAPKLLIYDVSNLETGVPSRFSGSGSGTDFTFTISSLQPEDVAIYYCQQYDQLPQTFGQGTKVEIE
B7: A-22 (antibody, V domains shown)
VH: not shown
VL: EIVLTQSPGTLSLSPGERATLSCRASQTVRSDLAWYQQKPGQAPRLLIYGASTRATDISDRFSGSGSGTEFTLTISSLQSEDFAVYYCQQYYEWPPHSDSFGGGTKVEIK
B8: A-13 (antibody, V domains shown)
VH: QVQLVQSGAEVKKPGASVKVSCKASGYTFTDYYMHWVRQAPGQGLEWMGWINPNSGGTNSAQKFQGRVTMTRDTSINTAYMELSRLRSDDTAVYFCARDSHLAMVRGDFEYWGQGTLVTVSS
VL: QSVLTQPASVSGSPGQSITISCTGTSSDVESYNVVSWYQQHPGKAPKLMIYEVSKRPSGVSHRFSGSKSGNTASLTISGLQAEDESDYYCCSYAGNSTWVFGGGTKLTVL
B9: A-19 (antibody, V domains shown)
VH: QVQLVQSGAEVKKPGESLKISCKGSGYSFTSYWIAWVRQMPGKGLEWMGIIYPGDSDTSYSPSFQGQVTISADKSISTAYLQWSSLKASDTAMYYCARGPNKYNWFDTWGQGTLVTVSS
VL: not shown
B10: A-24.1 Fab (Fab, V domains shown)
VH: EVQLVESGGGLVKPGRSLRLSCAASGFTFADYTMSWFRQAPGKGLEWVGFIRSEPYGGTTEYAASVKGRFTISRDDSKSIAYLQMNSLKTEDTAVYYCSRDPWYCSGGDCYAVTGSWFDPWGQGTLVTVSS
VL: DIQMTQSPSSLSASVGDRVTITCQASQDIKKYLNWYQQKPGKAPKLLIYDVSNLETGVPSRFSGSGSGTDFTFTISSLQPEDVAIYYCQQYDNLPQTFGQGTKVEIK

Assays:
SARS-CoV-2 WT RBD = SARS-CoV-2 WT RBD (SARS-CoV-2, UniProt P0DTC2 319-541); assay: Octet BLI single point, monovalent
[1] = molecular target: T2, SARS-CoV-2 wild type spike protein (on reporter virus particles) (SARS-CoV-2, UniProt P0DTC2 14-1273); assay: cell-based or functional assay
[2] = molecular target: T2, SARS-CoV-2 wild type spike protein (on …); assay: cell-based or functional assay; remark: listed apart in the source
[3] = molecular target: T2, SARS-CoV-2 wild type spike protein (on …); assay: cell-based or functional assay; remark: listed apart in the source
[4] = molecular target: T2, SARS-CoV-2 wild type spike protein (on …); assay: cell-based or functional assay; remark: listed apart in the source
MERS-CoV [change] = molecular target: T1, MERS-CoV [change]; assay: Octet BLI, IgG, monovalent
SARS-CoV1 Spike [change] [5] = molecular target: T3, SARS-CoV1 Spike [change] (SARS-CoV-1, UniProt P59594 14-667); assay: Octet BLI, IgG, monovalent
SARS-CoV-2 Spike S1-His [6] = molecular target: T4, SARS-CoV-2 Spike S1-His (SARS-CoV-2, UniProt P0DTC2 16-685); assay: Octet BLI, IgG, monovalent
[7] = molecular target: T2, SARS-CoV-2 wild type spike protein (on …); assay: cell-based or functional assay; remark: listed apart in the source
[8] = molecular target: Bat coronavirus WIV16 spike protein (Bat coronavirus WIV16); assay: cell-based or functional assay
SARS-CoV-1 spike protein = SARS-CoV-1 spike protein (SARS-CoV-1, UniProt P59594 14-1255); assay: cell-based or functional assay
[9] = molecular target: T2, SARS-CoV-2 wild type spike protein (on …); assay: cell-based or functional assay; remark: listed apart in the source
SARS-CoV-2 S Trimer = SARS-CoV-2 S Trimer (SARS-CoV-2, UniProt P0DTC2 16-1213); assay: Octet BLI, IgG, avid
SARS-CoV-2 Spike S1-His [10] = molecular target: T4, SARS-CoV-2 Spike S1-His; assay: Octet BLI, Fab, monovalent
[11] = molecular target: T2, SARS-CoV-2 wild type spike protein (on …); assay: cell-based or functional assay; remark: listed apart in the source
[12] = molecular target: T2, SARS-CoV-2 wild type spike protein (on …); assay: cell-based or functional assay; remark: listed apart in the source
SARS-CoV1 Spike [change] [13] = molecular target: T3, SARS-CoV1 Spike [change]; assay: Octet BLI, IgG, monovalent; remark: listed apart in the source
SARS-CoV-2 Spike S1-His [14] = molecular target: T4, SARS-CoV-2 Spike S1-His; assay: Octet BLI, IgG, monovalent; remark: listed apart in the source

| Binder | Kd (SARS-CoV-2 WT RBD) | PsV neutralization IC50 [1] | PsV neutralization IC90 [1] | PsV Neut Assay IC50 [2] | PsV IC50, Test 1 [3] | PsV IC50, Test 2 [3] | PSV IC50 [4] | binding result (MERS-CoV [change]) | Kd (SARS-CoV-2 Spike S1-His [6]) | SARS2 IC50 [9] | Kd (SARS-CoV-2 S Trimer) | binding result (SARS-CoV1 Spike [change] [5]) | Kd (SARS-CoV-2 Spike S1-His [10]) | further results |
| --- | --- | --- | --- | --- | --- | --- | --- | --- | --- | --- | --- | --- | --- | --- |
| B1 | 1.18 nM | 0.173 µg/mL | 2.03 µg/mL | 5.85 nM | 0.12 nM | 2.45 nM | 0.878 µg/mL | no binding | 3.71 nM | 0.023 nM | 1.35 nM | – | – | Kd (SARS-CoV1 Spike [change] [5]): 17.2 nM; PsV neutralization IC50 [7]: 0.015 µg/mL; PsV neutralization IC90 [7]: 0.085 µg/mL; PsV neutralization IC50 [8]: 0.074 µg/mL; PsV neutralization IC90 [8]: 16.3 µg/mL; PsV neutralization IC50 (SARS-CoV-1 spike protein): 1.01 µg/mL |
| B2 | 0.527 nM | 0.303 µg/mL | 1.82 µg/mL | 9.88 nM | 0.14 nM | 2.78 nM | – | no binding | 1.09 nM | 5.9 nM | 1.69 nM | – | – | Kd (SARS-CoV1 Spike [change] [5]): 7.43 nM; PsV neutralization IC50 [7]: 0.076 µg/mL; PsV neutralization IC90 [7]: 1.38 µg/mL; PsV neutralization IC50 [8]: 0.045 µg/mL; PsV neutralization IC90 [8]: 0.324 µg/mL; PsV neutralization IC50 (SARS-CoV-1 spike protein): 0.043 µg/mL; PsV neutralization IC90 (SARS-CoV-1 spike protein): 0.046 µg/mL |
| B3 | 2.09 nM | 0.057 µg/mL | 0.399 µg/mL | 1.24 nM | 0.28 nM | 0.54 nM | 0.186 µg/mL | no binding | 4.85 nM | 0.61 nM | 1.15 nM | no binding | – | – |
| B4 | – | 0.011 µg/mL | 0.164 µg/mL | 0.208 nM | 0.03 nM | 0.04 nM | – | no binding | 5.89 nM | 0.03 nM | 1 nM | no binding | – | – |
| B5 | – | – | – | – | – | – | – | – | – | – | – | – | 2.97 nM | – |
| B6 | – | – | – | – | – | – | – | – | – | – | – | – | 0.244 nM | – |
| B7 | 0.325 nM | 0.749 µg/mL | 3.55 µg/mL | – | – | – | – | – | – | 0.06 nM | – | – | – | SARS2 PsV IC50 [11]: 5 nM; WT PsV IC50 [12]: 28.8 nM; Kd (SARS-CoV1 Spike [change] [13]): 4.51 nM; Kd (SARS-CoV-2 Spike S1-His [14]): 0.244 nM |
| B8 | – | – | – | 0.155 nM | – | – | 0.023 µg/mL | no binding | 4.91 nM | – | 0.843 nM | no binding | – | – |
| B9 | – | – | – | 34.1 nM | – | – | 5.12 µg/mL | no binding | 1.15 nM | – | 0.987 nM | no binding | – | – |
| B10 | – | – | – | – | – | – | – | – | – | – | – | – | 0.539 nM | – |
